Assay results taken from article PMC5440653, “SorLA in Interleukin-6 Signaling and Turnover” (Molecular and Cellular Biology, 2017).

Columns and labels:
[1] = target: SorLA Vps10p domain (human); assay: SPR; Biacore 3000, CM5 chip; purified soluble receptor immobilized (66 to 86 fmol/mm^2), ligand injected at 5 ul/min, 25°C, 10 mM HEPES, 150 mM NaCl, 1.5 mM CaCl2, 1 mM EGTA, 0.005% Tween 20, pH 7.4; Langmuir 1:1 model, global fitting
[2] = target: T1, preformed sSorLA:IL-6 complex (human, UniProt Q92673 82-2137; P05231 30-212); assay: SPR; immobilized sSorLA first exposed to IL-6 (100 nM), then fresh buffer with 100 nM sIL-6R injected; n = 3; conditions: both partners purified
T1 construct: SorLA, human, luminal (extracellular) part, as m3; interleukin-6, human, recombinant, as m1; source: formed on the sensor chip: immobilized sSorLA exposed to IL-6 (100 nM)

[3] = target: T2, soluble SorLA (SorLA ectodomain, luminal part) (human, UniProt Q92673 82-2137); assay: SPR; Biacore 3000, CM5 chip; purified soluble receptor immobilized (66 to 86 fmol/mm^2), ligand injected at 5 ul/min, 25°C, 10 mM HEPES, 150 mM NaCl, 1.5 mM CaCl2, 1 mM EGTA, 0.005% Tween 20, pH 7.4; Langmuir 1:1 model, global fitting; conditions: both partners purified
T2 construct: SorLA, human, luminal (extracellular) part; The introduction says that the propeptide is cut off in late Golgi compartments; also called sSorLA; the entire extracellular part of SorLA
T2 sequence (Q92673 82-2137): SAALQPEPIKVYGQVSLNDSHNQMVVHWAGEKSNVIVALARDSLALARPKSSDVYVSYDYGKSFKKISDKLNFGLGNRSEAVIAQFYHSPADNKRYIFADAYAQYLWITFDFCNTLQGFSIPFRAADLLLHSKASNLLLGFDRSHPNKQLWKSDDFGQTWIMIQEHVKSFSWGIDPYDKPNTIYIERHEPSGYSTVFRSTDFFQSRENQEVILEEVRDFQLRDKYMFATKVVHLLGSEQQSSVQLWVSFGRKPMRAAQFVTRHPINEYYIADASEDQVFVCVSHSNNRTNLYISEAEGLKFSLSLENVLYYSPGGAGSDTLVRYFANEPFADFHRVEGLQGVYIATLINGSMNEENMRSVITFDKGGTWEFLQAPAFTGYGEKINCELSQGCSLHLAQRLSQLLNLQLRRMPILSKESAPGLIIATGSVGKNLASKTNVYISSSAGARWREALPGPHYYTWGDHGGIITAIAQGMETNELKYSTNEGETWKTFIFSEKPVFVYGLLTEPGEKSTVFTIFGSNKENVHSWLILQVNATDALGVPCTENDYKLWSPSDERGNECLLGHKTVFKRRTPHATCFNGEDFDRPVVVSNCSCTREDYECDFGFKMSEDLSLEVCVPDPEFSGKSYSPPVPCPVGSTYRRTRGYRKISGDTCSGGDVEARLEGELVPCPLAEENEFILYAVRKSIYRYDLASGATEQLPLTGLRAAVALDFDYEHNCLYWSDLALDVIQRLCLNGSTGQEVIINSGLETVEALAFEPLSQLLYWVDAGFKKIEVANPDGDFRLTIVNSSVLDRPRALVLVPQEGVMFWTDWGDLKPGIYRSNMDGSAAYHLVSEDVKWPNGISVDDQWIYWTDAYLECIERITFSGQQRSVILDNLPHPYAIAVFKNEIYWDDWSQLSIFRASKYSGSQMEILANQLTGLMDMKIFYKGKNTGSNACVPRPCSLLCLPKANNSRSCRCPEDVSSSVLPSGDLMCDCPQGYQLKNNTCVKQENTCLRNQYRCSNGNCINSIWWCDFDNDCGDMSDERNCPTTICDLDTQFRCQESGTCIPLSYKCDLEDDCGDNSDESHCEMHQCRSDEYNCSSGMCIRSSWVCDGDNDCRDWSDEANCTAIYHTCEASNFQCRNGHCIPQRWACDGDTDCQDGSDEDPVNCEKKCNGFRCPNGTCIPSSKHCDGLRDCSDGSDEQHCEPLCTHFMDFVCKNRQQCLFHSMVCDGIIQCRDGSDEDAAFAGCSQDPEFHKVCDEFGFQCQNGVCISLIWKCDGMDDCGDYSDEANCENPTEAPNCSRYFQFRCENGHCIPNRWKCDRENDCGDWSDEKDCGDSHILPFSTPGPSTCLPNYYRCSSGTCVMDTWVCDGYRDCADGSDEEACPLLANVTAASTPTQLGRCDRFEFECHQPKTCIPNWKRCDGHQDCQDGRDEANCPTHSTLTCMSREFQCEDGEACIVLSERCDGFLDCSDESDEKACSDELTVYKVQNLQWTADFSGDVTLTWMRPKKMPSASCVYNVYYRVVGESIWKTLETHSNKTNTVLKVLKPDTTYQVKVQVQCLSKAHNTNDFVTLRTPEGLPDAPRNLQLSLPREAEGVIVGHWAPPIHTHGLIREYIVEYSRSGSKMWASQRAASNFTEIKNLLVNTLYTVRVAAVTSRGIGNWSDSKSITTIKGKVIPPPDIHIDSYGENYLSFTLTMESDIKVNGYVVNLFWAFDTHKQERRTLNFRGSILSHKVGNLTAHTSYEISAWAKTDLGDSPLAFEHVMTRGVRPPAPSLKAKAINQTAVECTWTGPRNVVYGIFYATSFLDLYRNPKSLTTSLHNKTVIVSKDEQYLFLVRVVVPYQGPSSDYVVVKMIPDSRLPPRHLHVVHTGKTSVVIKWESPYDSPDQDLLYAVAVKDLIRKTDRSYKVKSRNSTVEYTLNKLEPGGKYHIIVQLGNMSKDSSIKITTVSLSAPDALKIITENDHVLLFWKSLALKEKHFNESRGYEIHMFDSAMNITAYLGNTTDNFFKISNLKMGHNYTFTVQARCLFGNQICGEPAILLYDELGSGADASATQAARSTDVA

T1 sequence (Q92673 82-2137, chain 1 of 2): as the sequence (Q92673 82-2137) above
T1 sequence (P05231 30-212, chain 2 of 2): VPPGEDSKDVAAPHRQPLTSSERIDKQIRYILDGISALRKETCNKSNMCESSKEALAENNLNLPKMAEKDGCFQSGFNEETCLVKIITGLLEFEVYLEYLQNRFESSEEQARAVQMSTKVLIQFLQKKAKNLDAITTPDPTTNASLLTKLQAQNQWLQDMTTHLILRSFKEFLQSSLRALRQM
Sequence of Interleukin-6 (P05231 30-212): as the sequence (P05231 30-212, chain 2 of 2) above

| Molecule | Kd [1] [nM] | Kd [2] [nM] | Kd [3] [nM] |
| --- | --- | --- | --- |
| Interleukin-6 (from UniProt P05231 30-212) (ligand) | 12 | – | – |
| soluble IL-6 receptor (IL-6R ectodomain) (from UniProt P08887 20-365) | 9 | – | – |
| soluble IL-6 receptor (IL-6R ectodomain) (receptor, human, UniProt P08887 20-365, looked up, interleukin-6 receptor (alpha chain), human, soluble form consisting only of the ectodomain; also called sIL-6R; recombinant human sIL-6R; source: bought: R&D Systems) LAPRRCPAQEVARGVLTSLPGDSVTLTCPGVEPEDNATVHWVLRKPAAGSHPSRWAGMGRRLLLRSVQLHDSGNYSCYRAGRPAGTVHLLVDVPPEEPQLSCFRKSPLSNVVCEWGPRSTPSLTTKAVLLVRKFQNSPAEDFQEPCQYSQESQKFSCQLAVPEGDSSFYIVSMCVASSVGSKFSKTQTFQGCGILQPDPPANITVTAVARNPRWLSVTWQDPHSWNSSFYRLRFELRYRAERSKTFTTWMVKDLQHHCVIHDAWSGLRHVVQLRAQEEFGQGEWSEWSPEAMGTPWTESRSPPAENEVSTPMQALTTNKDDDNILFRDSANATSLPVQDSSSVPLP | – | 8 | ~34 |
